The text below walks through data of PMC3079231 (International journal of mass spectrometry, 2011).

Residue numbers refer to the chain shown, from its start. Numbers in names are those of the source.

The data set deals with the molecule itself. Kind of data set: HDX-MS.

B1: Salmonella typhimurium AhpC T77I mutant (enzyme)
chain: SLINTKIKPFKNQAFKNGEFIEVTEKDTEGRWSVFFFYPADFTFVCPTELGDVADHYEELQKLGVDVYSVSTDTHFIHKAWHSSSETIAKIKYAMIGDPTGALTRNFDNMREDEGLADRATFVVDPQGIIQAIEVTAEGIGRDASDLLRKIKAAQYVAAHPGEVCPAKWKEGEATLAPSLDLVGKI
modifications: oxidized form: intersubunit disulfide (Cys-46 to Cys-165); reduced form (TCEP): free thiols
On to B1, for which the binding result was “binds”.

B2: Salmonella typhimurium AhpC T77V mutant (enzyme)
chain: B1 chain with I77V
modifications: oxidized form: intersubunit disulfide (Cys-46 to Cys-165); reduced form (TCEP): free thiols
As for B2, the binding result is reported as “binds”.
